For the experiment, the target named is T1, Bcl-xL, recombinant protein (human, UniProt Q07817-1 1-233).
T1 construct: Bcl-xL, human; also called wild type Bcl-xL; source: purified recombinant protein; host and details in Supplementary Information
The experiment is described as follows: ITC; peptide titrated into Bcl-xL in the cell; 30 °C, 50 mM ammonium bicarbonate pH 9; ITC200 calorimeter. Conditions: both partners purified.

T1 sequence (Q07817 whole entry): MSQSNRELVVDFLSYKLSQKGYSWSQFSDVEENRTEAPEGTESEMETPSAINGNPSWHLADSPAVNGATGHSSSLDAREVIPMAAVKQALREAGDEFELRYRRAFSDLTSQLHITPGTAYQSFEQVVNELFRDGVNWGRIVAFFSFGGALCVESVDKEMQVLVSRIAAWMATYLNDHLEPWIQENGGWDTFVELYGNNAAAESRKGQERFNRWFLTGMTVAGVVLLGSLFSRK

B1: hybrid Bax/TCTP peptide (TCTP BH3 peptide containing the Bax h1 (P1) sub-region) (peptide)
chain: QPPQDASTKKLSECIREIADGLCLEV
B1: the Kd amounted to 500 nM.

These data come from paper PMC4728560, “TCTP contains a BH3-like domain, which instead of inhibiting, activates Bcl-xL” (Scientific Reports, 2016).
